Read-outs that look alike come from different tables or passages of the source.
Key:
[1] = target: SARS-CoV-2 S ectodomain, ancestral (S-2P) (SARS-CoV-2) (UniProt P0DTC2)
[2] = target: SARS-CoV-2 S ectodomain, ancestral (S-2P) (SARS-CoV-2) (UniProt P0DTC2); remark: listed apart in the source
[3] = target: SARS-CoV-2 S Ancestral (S-2P ectodomain) (SARS-CoV-2 (ancestral)) (UniProt P0DTC2); assay: protein ELISA
[4] = target: SARS-CoV-2 S ectodomain, ancestral (S-2P) (SARS-CoV-2) (UniProt P0DTC2); assay: ELISA on coated S

Row | Substance | IC50 (read off the curve) [1] [µg/mL] | IC50 (read off the curve) [2] [µg/mL] | EC50 [3] [µg/mL] | EC50 [4] [µg/mL]
1 | C121 (antibody) | 1 | 0.3 | 0.0187 | –
2 | CV3-25 (antibody) | – | – | – | 0.0139
3 | S2P6 (antibody) | – | – | – | 0.0379

Source: US20250382354A1
